According to US20200010567A1 (NEURIMMUNE, published 2020):

T1: GA6: H-(GA)6HHHHHH-NH2
T1 peptide: H-GAGAGAGAGAGAHHHHHH-NH2

T2: aggregated C9orf72 (GA)20 DPR protein peptide preparation (C-terminal amide)
T2 construct: also called aggregated (GA)20; amyloid-fibril like aggregated (GA)20
T2 peptide: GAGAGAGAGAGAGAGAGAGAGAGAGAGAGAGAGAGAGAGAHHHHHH

T3: monomeric C9orf72 (GA)20 DPR protein peptide preparation (C-terminal amide)
T3 construct: also called monomeric (GA)20
T3 peptide: T2 peptide

B1: NI-308.15O7 (antibody, V domains shown)
VH: QVQLVESGGGVVQPGRSLRLSCAASGFTFSNHAMHWVRQAPGKGLEWVAVISYDGENTYYADSIEGRFTISRDNFKNTLFLQMYSLTADDTAMYFCARGGRRGHFTSYYLDYWGQGTLVTVSS
VL: CDIQMTQSPSSLSASVGDRVTITCRASQNIDKYLNWYQQIPGKAPKLLIYAASSLHSGVPSRFSGSGSGTDFSLTISSLQPEDFAIYYCQQSYSSFRTFGQGTKLEIK
B2: NI-308.28G1 (antibody, V domains shown)
VH: QVQLQESGPRLVKPSETLSLTCTVAGGSVNSYYWTWIQQSPGKGLEWLGRIYIAGRTNYNPSLTSRIALSVDTSRNQLSLKLTSVTAADTAIYYCARWGAESGDYYYGVDVWGPGTLVTVSS
VL: EIVMTQSPLSLPVTPGEPASISCKSSEGLLHSNGYTYLDWYLQKPGQAPQLLIFLASNRAAGVPDRFSGSGSGTDFTLKISRVEAEDVGVYYCMQAIQSPWTFGPGTKVEIK
notes: Recombinant complete human IgG1, kappa
B3: NI-308.18F7 (antibody, V domains shown)
VH: QVQLQESGPGLVKPSETLSVTCTVSGGSINDYYWNWIRQPAGKGLEWIGRIYASGTINYNPSLQSRVTMSIDTSKNQFSLDLISVSAADTAVYYCARWGQVVGDYYYGMDVWGQGTTVTVSS
VL: EIVLTQSPLSLSVTPGEPASISCKSSQSLQHTNGYNYLDWYLLKPGQSPQLLIFLTSNRASGVPDRFSGSGSGTNFTLKISRVEAEDVGVYYCMEGIQLWTFGQGTKLEIK
notes: as for B2
B4: NI-308.5G2 (antibody, V domains shown)
VH: EVQLVQSGADLRNPGASVTVSCTASGYHFADNAINWLRQAPGQRLEWMGWINIYSGNTKYSQNFQGRVTFTRNTSASTAFMHLRSLRSEDTAVYFCARDPDSSGYYLPYFDYWGQGTLVTVSS
VL: DIQLTQSPDSLTLSLGERATINCKSSQSVFYNSNNKNYLAWYQQKPGQPPKLLMYWASTRESGVTDRFSGSGSGTDFTLTITNLQAEDVAVYYCQQFYSSPLTFGGGTKVEIK
notes: as for B2
B5: NI-308.46E9 (antibody, V domains shown)
VH: QVQLQESGPGLVKPSETLSLTCTVSGASISGSTYYWGWIRQPPGKGLEYIGRIYYSGSTYYNPSLKSRATISVDTSKNQLSLTLSSVTAADTAVYYCVRPFYAGSGNSPFDYWGQGTLVTVSS
VL: CEIVLTQSPATVSVSPGERATLSCRASQSVSTNLAWYQQKPGQPPRLLIYGASTRATGIPARFSGSGSGAEFTLTISSLQSEDFVVYYCQQYNNWPPAFGGGTKVEIK
notes: as for B2

Key:
GA6: H-(GA)6HHHHHH-NH2 = biological target: T1, GA6: H-(GA)6HHHHHH-NH2; assay: indirect ELISA, coated His-tagged peptide; indirect ELISA, peptide coated directly on the plate
Source text: In brief, dipeptide repeat proteins were synthesized and purified by Schafer-N (Copenhagen, Denmark): GA₂₀: H-(GA)₂₀HHHHHH-NH₂; GA₁₀: H-(GA)₁₀HHHHHH-NH₂; GA₆: H-(GA)₆HHHHHH-NH₂; GA₅: H-(GA)₅HHHHHH-NH₂; GA₄: H-(GA)₄HHHHHH-NH₂; GA₃: H-(GA)₃HHHHHH-NH₂; GA₂: H-(GA)₂HHHHHH-NH₂; GP₂₀: H-(GP)₂₀HHHHHH-NH₂; GP₁₀: H-(GP)₁₀HHHHHH-NH₂; GP₆: H-(GP)₆HHHHHH-NH₂; GP₅: H-(GP)₅HHHHHH-NH₂; GP₄: H-(GP)₄HHHHHH-NH₂; GP₃: H-(GP)₃HHHHHH-NH₂; GP₂: H-(GP)₂HHHHHH-NH₂. GR₂₀: H-(GR)₂₀HHHHHH-NH₂; GR₁₀: H-(GR)₁₀HHHHHH-NH₂; GR₆: H-(GR)₆HHHHHH-NH₂; GR₅: H-(GR)₅HHHHHH-NH₂; GR₄: H-(GR)₄HHHHHH-NH₂; GR₃: H-(GR)₃HHHHHH-NH₂; GR₂: H-(GR)₂HHHHHH-NH₂; PA₂₀: H-(PA)₂₀HHHHHH-NH₂; PA₁₀: H-(PA)₁₀HHHHHH-NH₂; PA₆: H-(PA)₆HHHHHH-NH₂; PA₅: H-(PA)₅HHHHHH-NH₂; PA₄: H-(PA)₄HHHHHH-NH₂; PA₃: H-(PA)₃HHHHHH-NH₂; PA₂: H-(PA)₂HHHHHH-NH₂; PR₂₀: H-(PR)₂₀HHHHHH-NH₂; PR₁₀: H-(PR)₁₀HHHHHH-NH₂; PR₆: H-(PR)₆HHHHHH-NH₂; PR₅: H-(PR)₅HHHHHH-NH₂; PR₄: H-(PR)₄HHHHHH-NH₂; PR₃: H-(PR)₃HHHHHH-NH₂; PR₂: H-(PR)₂HHHHHH-NH₂. 96-well microplates (Corning Incorporated, Corning, USA) were coated with dipeptide repeat protein peptides at a concentration of 50 μg/ml in coating buffer (15 mM Na₂CO₃, 35 mM NaHCO₃, pH 9.42). Non-specific binding sites were blocked for 1 h at room temperature with PBS/0.1% Tween®-20 containing 2% BSA (Sigma-Aldrich, Buchs, Switzerland). Primary antibodies were diluted to the indicated concentrations and incubated 1 h at room temperature, followed by incubation with a donkey anti-human IgG Fcγ-specific antibody conjugated with HRP (Jackson ImmunoResearch Laboratories, Inc., West Grove, USA). Binding was determined by measurement of HRP activity in a standard colorimetric assay. EC₅₀ values were estimated by non-linear regression using GraphPad Prism software (San Diego, USA).

[1] = biological target: T2, aggregated C9orf72 (GA)20 DPR protein …; assay: indirect ELISA, coated preparation 5 ug/ml
Procedure: (§1) 96-well microplates (Corning Incorporated, Corning, USA) were coated with monomeric and aggregated (GA)₂₀ DPR protein peptide preparations at a concentration of 5 μg/ml in coating buffer (15 mM Na₂CO₃, 35 mM NaHCO₃, pH 9.42). Non-specific binding sites were blocked for 1 h at room temperature with PBS/0.1% Tween®-20 containing 2% BSA (Sigma-Aldrich, Buchs, Switzerland). Primary antibodies were diluted to the indicated concentrations and incubated 1 h at room temperature, followed by incubation with a donkey anti-human IgG Fcγ-specific antibody conjugated with HRP (Jackson ImmunoResearch Laboratories, Inc., West Grove, USA). Binding was determined by measurement of HRP activity in a standard colorimetric assay. EC₅₀ values were estimated by non-linear regression using GraphPad Prism software (San Diego, USA).

[2] = biological target: T3, monomeric C9orf72 (GA)20 DPR protein …; assay: indirect ELISA, coated preparation 5 ug/ml
Procedure: as §1

[3] = biological target: T4, BSA-coupled (GR)15 DPR protein peptide (bovine, UniProt P02769 25-607, conjugated via a bifunctional linker (SMCC) to bovine serum albumin); assay: Western blot of BSA-coupled peptides
T4 construct: also called BSA-(GR)15
Procedure: (§2) Resolved proteins were then electroblotted (Novex® Semi-Dry Blotter, 1 h, 25V) on methanol-activated PVDF membranes (Immobilon®-P Transfer Membrane, Merck & Cie, Schaffhausen, Switzerland) by the use of Novex® NuPAGE® transfer buffer 2× (Life Technologies Europe B.V., Zug, Switzerland). Non-specific binding sites were blocked overnight at 4° C. (or alternatively for 1 h at room temperature) with PBS/0.1% Tween®-20 containing 2% BSA (Sigma-Aldrich, Buchs, Switzerland) (PBST). […] Membranes were washed three times in PBST for 15 min at RT and then incubated with a donkey anti-human IgG Fcγ-specific antibody conjugated with HRP (1:20000 or 1:10000 dilution, Jackson ImmunoResearch Laboratories, Inc., West Grove, USA) for 1 h at room temperature. Antibody binding was determined by membrane development using ECL and ImageQuant 350 detection (GE Healthcare, Otelfingen, Switzerland).
(§3) The binding specificity of the human-derived antibodies to BSA-coupled C9orf72 dipeptide repeat proteins (GA)₁₅, (GP)₁₅, (GR)₁₅, (PA)₁₅ and (PR)₁₅ was determined by Western blot analysis.

[4] = biological target: T5, BSA-coupled (PR)15 DPR protein peptide (bovine, conjugated via a bifunctional linker (SMCC) to bovine serum albumin); assay: Western blot of BSA-coupled peptides
T5 construct: also called BSA-(PR)15
Procedure: as §2, §3

[5] = biological target: T6, BSA-coupled (PA)15 DPR protein peptide (bovine, UniProt P02769 25-607, conjugated via a bifunctional linker (SMCC) to bovine serum albumin); assay: Western blot of BSA-coupled peptides
T6 construct: also called BSA-(PA)15
Procedure: as §2, §3

T4 sequence (peptide, as listed by the source limits assumed, chain 1 of 2): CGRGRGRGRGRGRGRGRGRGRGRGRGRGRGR
T4 sequence (P02769 25-607 limits assumed, chain 2 of 2): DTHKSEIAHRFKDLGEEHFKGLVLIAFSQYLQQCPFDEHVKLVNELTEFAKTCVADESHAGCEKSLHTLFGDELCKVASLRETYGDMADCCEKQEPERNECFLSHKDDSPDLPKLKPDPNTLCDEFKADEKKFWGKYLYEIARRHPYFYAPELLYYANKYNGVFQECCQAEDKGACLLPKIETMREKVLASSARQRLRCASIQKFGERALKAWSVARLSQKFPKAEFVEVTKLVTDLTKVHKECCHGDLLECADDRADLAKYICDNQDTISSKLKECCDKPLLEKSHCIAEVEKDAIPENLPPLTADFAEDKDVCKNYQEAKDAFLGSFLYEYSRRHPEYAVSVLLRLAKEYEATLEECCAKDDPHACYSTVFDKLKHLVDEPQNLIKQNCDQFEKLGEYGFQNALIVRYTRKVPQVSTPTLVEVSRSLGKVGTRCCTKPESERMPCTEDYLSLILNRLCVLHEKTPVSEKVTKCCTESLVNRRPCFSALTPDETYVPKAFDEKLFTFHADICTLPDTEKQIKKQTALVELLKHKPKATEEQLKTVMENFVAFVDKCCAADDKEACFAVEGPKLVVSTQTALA
T6 sequence (peptide, as listed by the source limits assumed, chain 1 of 2): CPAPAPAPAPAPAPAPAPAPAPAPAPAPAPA
T6 sequence (P02769 25-607 limits assumed, chain 2 of 2): as the sequence (P02769 25-607 limits assumed, chain 2 of 2) above
T5 sequence (peptide, as listed by the source limits assumed, chain 1 of 2): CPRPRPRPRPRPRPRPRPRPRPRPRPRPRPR
T5 sequence (P02769 25-607 limits assumed, chain 2 of 2): as the sequence (P02769 25-607 limits assumed, chain 2 of 2) above

| Binder | EC50 (GA6: H-(GA)6HHHHHH-NH2) | EC50 [1] | EC50 [2] | binding result [3] | binding result [4] | binding result [5] |
| --- | --- | --- | --- | --- | --- | --- |
| B1 | 7.9 nM | 0.78 nM | 0.53 nM |  |  |  |
| B2 | 6.3 nM |  |  |  |  |  |
| B3 |  | 0.89 nM | 0.87 nM |  |  |  |
| B4 |  |  |  | no binding | no binding | no binding |
| B5 |  |  |  | no binding | no binding | no binding |
